Laboratory results taken from the nanobody polyreactivity screen of Harvey et al. (2022).

Test: yeast display, Sf9 membrane polyspecificity reagent, FACS + sequencing; frameworks hold sequencing errors
How it was run: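 Synthetic nanobody libraries on Saccharomyces cerevisiae BJ5465 were galactose-induced for 36–48 hours, stained 1 hour at 4 °C with 10% biotinylated, detergent-solubilized Sf9 membrane reagent and enriched on streptavidin microbeads. FACS then separated cells into low and high (top ~1%) gates by anti-HA (expression) and streptavidin (reagent binding) fluorescence. Genes were colony-PCR amplified, MiSeq 2 × 250 sequenced and CDR-length filtered. A clone's polyreactivity label is that of its gate of origin.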

Row | Sequence | polyreactivity (PSR sort gate)
1 | QVQLVESGGGLVQAGGSLRLSCAASGSTFDFNAMGWYRQAPGKERELVAAITSGGGSTYYADSLKGRFTISRDNAKNTVYLQMNSLKPEDTAVYYCAADDIVLRYDYWGQGTQVTVSS | low polyreactivity
2 | QVQLVESGGGLVQAGGSLRLSCAASGITFGYYAMGRYRQAPGKERELVAAISNSGRTYYADSVKGRFTISRDNAKNTVYLQMNSLKPEDTAVYYCAVRISGNWYDYWGQGTQVTVSS | low polyreactivity
3 | QVQLVESGGGLVQAGGSLRLSCAASGSTFGGYAMGWYRQAPGKERELVASISGGTRTNYADSVKGRFTISRDNAKNSVYLQMNSLKPEDTAVYYCAAEVGLPTWYTLPVDDYDYWGQGTQVTVSS | low polyreactivity
4 | QVQLVESGGGLVQAGGSLRLSCAASGGLFTAYTMGWYRQAPGKERELVAVISSGGGRTYYADSVKGRFTISRDNAKNSVYLQMNSRKPEDTAVYYCNARVYVSANKYDYWGQGTQVTVSS | high polyreactivity
5 | QVQLVESGGGLVQAGGSLRLSCAASGRTIRGNAMGWYRQAPGKERELVAAIRWNGGSTYYADSVKGRFTISRDNAKNTVYLQMNSLKPEDSAVSYCAVSYWYSRYDYWGQGTQVTVSS | high polyreactivity
6 | QVQLVESGGGLVQAGGSLRLSCAASGRIFRYYVMGWYRQAPGKERELVATITSGGSTNYADSVKGRFTISRDNAKNTVYLQMYSLKPEDTAVYYCARGTSTCTYYWYGYWGQGTQVTVSS | low polyreactivity
7 | QVQLVESGGGLVQAGGSLRLSCAASGRIFRYYAMGWYRQAPGKERELVAAISSGVGNTYYADSVKGRFTISRDNAKNTVYVQMNSLKPEDTAVFYCKAKWRKFGTVRYDYWGQGTQVTVSS | high polyreactivity
8 | QVQLVESGGCLVQAGGSLRLSCAASGSTLGYYAMGWYRQAPGKERELVASIRWDTASTYYADSVKGRFTISRDNAKNTVYLQMNSLKPEDTAVYYCNAGRPRFYRSRWYYYGYGYWGQGTQVTVSS | high polyreactivity
9 | QVQLVESGGGLVQAGGSLRLSCAASGYIFERNAMGWYRQAPGKERELVAAITDDGDDTYYADSVKGRFTISRDNAKNTVYLQMNSLKPEETAVYYCAKDLYYGDYYYWGQGTQVTVSS | low polyreactivity
10 | QVQLVESGGGLVQAGGSLRLSCAASGLTFVPNAMRWYRQAPGKERELVAAISNNGGRTYYADSVKGRFTISRDNAKNTVYLQMNSLKPEDTAVYYCAKSLSPGERHSYDYRGQGTQVTVSS | high polyreactivity
11 | QVQLVESGGGLVQAGGSLRLSCAASGSTFSEYAMGWYRQAPGKERELVAAISETGGRTYYADSVKGRFTISRDNAKNTVYLQMNSLKPEDTAVYYCAVDHLTRSGDGEYWGQGTQVTVSS | high polyreactivity
12 | QVQLVESGGGLVQAGGSLRLSCAASGLTFTHYARGWYREAPGKERELVAAISRSGGTTYYADSVKGRFTISRDNAKNTLYFQMNSLKPEDTAVYYCAARWWYRYNYDYWGLGTQVTVSS | high polyreactivity
13 | QVQLVESGGGLVQAGGSLRLSSGASGLTIRRYAMGWSRQAPGKEREFVATISQNGGRTYYADSVKGRFTISRDNAKNTFYLQMNSLKPEDTAVYYCAAEDWRWGYDYWGQGTQVTVSS | high polyreactivity
14 | QVQLVESGGGLVQAGGSLRLSCAASGIIFIKYSMGWYRQAPGKERELVAAITSGGSTHYADSVKGRFTISRDNAKNTVYLQMNSLKPEDTAVYYCYADILRHVAYFKDRYQAGSYWGQGTQVTVSS | low polyreactivity
15 | QVQLVESGGGLVQAGGSLRLSCAASGSTFYYNAMGWYRQAPGKERELVAGISGGGSTNYADSVKGRFTISRDNAKNTVYLQMNSLKPEDTAVYYCAARERYRGAIGYDYWGKGTQVTVSS | low polyreactivity
16 | QVQLVESGGGLVQAGGSLRLSCAASGLIFYTYAMGWYRQAPGKERELVAAISYDGTRTYYADSVKGRFTISRDNAKNTVYLQMNSLKPEDTAVYYCTAAYRRGDDYWGQGTQVTVSS | high polyreactivity
17 | QVQLVESGGGLVQAGGSLRLSCAASGFTIRAYVMGSYRQAPGKEREFVADISYRGGGTNYADSVKGRFTISRDNAKNTVYLQMNSLKPEDTAVYYCNARSGSSKSGYYYWGQGTQVTVSS | high polyreactivity
18 | QVQLVESGGGLVQAGGSLRLSCAASGFTFRYYTMGWYRQAPGKERELVAAITWSGGSTYYADSVKGRFTISRDNAKNTVYLQMNSLKPEDTAVYYCNAYPSYVSFDYWGQGTQVTVSS | high polyreactivity
19 | QVQLVESGGGLVQAGGSLRLSCAASGNTFAGNAMGWYRPAPGKERELVAAISRSGVTTRYADSVKGRVTISRDNAKHTVYLQMNSLKPEDTAVYYCNADPRLRQTRDYWGQGTQVTVSS | high polyreactivity
20 | QVQLVESGGGLVHAGGSLRLSCAASGSTLAGYAMGWYRQAPGKERELVAAIDWTGGSTTYSDSVKGRFTISRDNAKNTVYLQMNSLKPEDTAVYFCHVDLGVNGDYWGQGTQVTVSS | low polyreactivity
21 | QVQLVESGGGLVQAGGSLRLNCAASGFTFYTYAMGWYRQAPGKERELVAAITSGGGTYYADSVKGRFTISRDNAKYSVYLQMNSLKPEDTAVYYCNRASRRGYYYPYNYWGQGTQVTVSS | high polyreactivity
22 | QVQLVESGGGLVQAGGSLRLSCAASGRTFAAYAMGWYRQAPGKERELVAAISRGGGRTYYADSVKGRFTISRDNAKNTVYLQMNSLKPEDTAVYYCNAVRPRDNGSWGQGTQVTVSS | high polyreactivity

Row | Sequence | polyreactivity (PSR sort gate)
23 | QVQLVESGGGLVQAGGSLRLSCAASGRIFVCYAMGLYRQAPGKERELVAAISSSCGSTYYADSVKGRFTISRDKAKNTVYLQMNSLKPEDTAVYYCNTHQRSRMDYWVQGTQVTVSS | low polyreactivity
24 | QVQLVESGGGLVQAGGSLRLSSAASGSTFKVNARGWYRQAPGKERELVAGITSSDSTKYADSVKGRFTISRDNAKNTVYLQMNSLKPEDTAVYYSAAETKFSRTSEGDYWGQGTQVTVSS | low polyreactivity
25 | QVQLVESGGGLVQAGGSLRLSSAASGRTFGKYAMGWYRQAPGKESELVAAITNSGGSTYYADSVKGRFTISRDNAKNTVYLQMISLKPEDTAVYYCNRLGYRGPSILNHMGYWGQGTQVTVSS | high polyreactivity
26 | QVQLVESGGRVVQAGGILRLRCAGSGSILVHYAMGWYRQAPGKDRELVAAISRGGSTNYADSVKGRFTISRDNAKNTVYLQMNSLKPEDTAVYYCDARRPWGEYYWGQGTQVTVSS | low polyreactivity
27 | QVQLVESGGGLVQAGGSLRLSCAASGFTFKYYVMGWYRQAPGKERELVASISKRGGSRNYADSVKGRFTISRDNAKNTVYLQMNSLKPEDTAVYYCAADYPATSGPRHYYWGQGTQVTVSS | high polyreactivity
28 | QVQLVESGGGLVQAGGSLRLSCAASGSTFYANAMGWYRQAPGKERELVAAISYSGGGTNYADSVKGRFTISRDNAKNTVYLQMISLKPEDTAVYYCAKRRDYDRYRYKKTSSVRGDYWGQGTQVTVSS | low polyreactivity
29 | QVQLVESGGGLVQAGGSLRLSCAASGRIFTSYVMGWYRQAPGKERELVAAITWGGSTKYADSVKGRFTISRVNAKNTVYLQMNSLKPEDTAVYYCAADGGEYYKGFFAVPYGYWGQGTQVTVSS | low polyreactivity
30 | QVQLVESGGGLVQAGGSLRLSCAASGFTFYRYPMGWYRQAPGKETELVAAITKRGDRTYYADSVKGRFRISRDNAKNTVFLQMSSLKPEDTAVYFCASDPYYSVSYWLAYDYWGQGTQVTVSS | high polyreactivity
31 | QVQLEESGGGLVQAGGSLRLSCAASGSTFYYNAIGWYRQAPGKERELVAGITSGTGTKYADSVKGRFTISRDNAKNRVYLQMNSLKPEDTAVYYCAKDGTRYGSAPFGYWGQGTQVTVSS | low polyreactivity
32 | QVQLVESGGGLVQAGGSLRLSCAASGFIFAYNAMGWYRQAPGKERELVAGISRRGGSTYYADSVKGRFTISRDNAKNTVYLQMNSLKPEDTAVYYCAADSFTYWSWLHGYWGQGTQVTVSS | high polyreactivity
33 | QVQLVESGGGLVQAGVSHRLSCAASGRTFPGNAMGWYRQAPGKEREFVAAISYSGGRTYYADSVKGRFTISRDNAKNTVYLLMNSLKPEDTAVYYCAKRIVQPSVAAYYYWGLGTQVTVSS | high polyreactivity
34 | QLQLVESGGGLFQAGGSLRISCAASGRTFLRNAMGSYRQPPGKEREFVATISAGGGSTYYADSVKGRFTISRDNAKNTVYLQMNSLKPEDTAVYYCAARYRAGPGYGMDSCGQGTQVTVSS | high polyreactivity
35 | QVQLQESGGGLVQAGGSLRLSCAASGTIFDKDDMGWYRQAPGKEREFVAGIDRGGTTNCAGSVKGRFTISRDNAKNTVYLQMISLKPEDTEVYYCAAYYPDIYPFIYRGQGTQVTVSS | high polyreactivity
36 | QFQRVESGGGLVQAGGSLRLSCAASGRILSYKVMGWYRQAPGKEREFVASIRRTGVRTYYADSVKGRFTISRDNAKNTVYLQINSLKPEDTGVYYCNAANFHFWDYYYWGQGTQVTVSS | low polyreactivity
37 | QVQLVESGGGLVQAGGSLRLSCAASGIIFIVNAMGWYRQAPGKERELVATISSSGDITRYADSVKGRFTISRDNAKYTVYLQMNSLKPEDTAVYYCAARLWTGYWGTAHPRYDYWGQGTQVTVSS | high polyreactivity
38 | QVQLVESGGGLVQAGGSLRLSCAASGFIFSSYAMGWYRQAPGKERELVAAITVRAGRTYYADSVKGRFTISRDNATNTVYFQMNSVKAEDTAVDYCAAAYRHPYGKYVYWGQGTQVTVSS | high polyreactivity
39 | QVQLVESGGGLVQAGGSLRLSCAASGSTFGYNAMGWYRQAPGKERELVAAITWSGGSTYYADSVKGRFTISRDNAKNTFYFQMNSLKPEDTAVYYCAAEWGVGKSWLEYLLFYYWGQGTQVTVSS | low polyreactivity
40 | QVQIVESGGGLVQAAGSLRLSCAASGRTFGYYAMGWYREAPGKEREMVAAITSCGRNTYYADTVKGRFTISRDNAKNNVYLQMNRLKPEDTAVYYCNTVYHAYWGKCVNYWGQGTQVTVSS | high polyreactivity
41 | QVQLVESGGGLVQAGGSLRLSCAASGYTFTHYAMGWYRQAPGKERELVAGITWSGGSTYYADSVKGRLTISRDNAKNTVYLQMNSLKPEDTSVYYCAAKYYWYYSYSGIPLFDYWGQGTQVTVSS | low polyreactivity
42 | QVQLVESGGGLVQAGGSLRLSCAASGSIYYRNAMGSYRQAPGKERELVAAISSTGSTYYADSVKGRFTISRDNAKNTVYLQMNSMKPEDTAVYYCAARQGYRSYRRYDSWGQGTQVTVSS | high polyreactivity
43 | QDQLVESGGGLVQAGGSLRLSCAASGSISWVYSMGWYRQAPGKEREFVAAISESGDTYYADSVKGRFTISRDNAKNTVYLQMNSLKPEDTAVYYCAATSPDGVTYDYWGHGTQVTVSS | low polyreactivity
